According to the nanobody polyreactivity screen of Harvey et al. (2022):

Test: yeast display, Sf9 membrane polyspecificity reagent, FACS + sequencing; frameworks hold sequencing errors
How it was run: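 Polyreactivity labels are assigned by the sorting gate from which each nanobody was recovered. The gates were low and high (top ~1%), set on anti-HA fluorescence for expression and streptavidin fluorescence for reagent binding. Before sorting, galactose-induced (36–48 hours) yeast display cells were stained for 1 hour at 4 °C with 10% biotinylated, detergent-solubilized Sf9 membrane reagent.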

Row | Sequence | polyreactivity (PSR sort gate)
1 | QVQLGESGGGLVQAGGSLRLSCAASGSILRTYTMGWYRPAPGKERELVAAISSSGGRTYYADSVKGRFTISRDNAKNTVYLQMNSLKPEDTAVYYCNAGGYRYRSYDYWGQGTQVTVSS | high polyreactivity
2 | QVQLVESGGGLVQAGGSLRLSCPASGRTFSRNAMGRYRQAPGKERELVATISRRGGSTNYADSVKGRFTISRDNAKNTVYLQMNSLIPEDTAVYYCAAGYRVRDDKVYGIVGAMDYWGQGTQVTVSS | high polyreactivity
3 | QVQLVESGGGLVQAGGSLRLSCAASGSTLRRNAMGWYRPAPGKERELVAAISGTGGSTYYADSVKGRFTISRDNAKNTVYLQMNSLKPEDTAVYYCAATGWYYDYDYWGQGTQVTVSS | low polyreactivity
4 | QVQHVESGGGLVQAGGSLRLSCAASGRTITLNAMGWYRQAPGKERELVAAITWGAGSTYYADSVKGRFTISRDNAKNTVYLQMNSLKPEDTAVYYCAARFHGAYYRYRSPSMYYWGQGTQVTVSS | high polyreactivity
5 | QVQLVESGGGLVQAGGSLRISSAASGRMLYSYAMGWYRQAPGKESEFVAAIRRSGGSTYYADSVKGRFTISRDNAKNTVYLQMNSLKPEDTAFYYCAAGRRYSGSYDYWGQGTQVTVSS | high polyreactivity
6 | QVQLVESGGGLVQAGGSLRLSCAASGYTFYPYARGWYRQAPGKGRELVAVITSGDSTYYADSVKGRFTISRDNAKNTVYLQMNSLKPEDSAVYYCNTLGFDYYYYEYDYWVQGTQVTVSS | low polyreactivity
7 | QVQLVESGGGLVQAGGSLRLSCAASGSTFHTNSMGGYRQAPGKETELVAAIRSGGGTNYADSVKGRFTISRDNAKNTVYLQMNSLKPEDTAVYYCNASPLPYSHRGDYWGQGTQVTVSS | low polyreactivity
8 | QVQLVESGGGLVQAGGSLRLSCAASGFTFDSNAMGWYRQAPGKERELVAAISRRGGSTYYADSVKGRFTISRDNAKNTVYLQMNSLKPEDTAVYYCNKESWRIGRYQYDSWGQGTQVTVSS | high polyreactivity
9 | QVQLVESGGCLVQAGGSLRLSCAASGRTFYINTMGWYRQAPGKEREFVAAIRFSSDSTYYADSVKGRYTISRDNAKNTVYLQMNSLKPEDTAVYYCATRTYAQRYGYWGQGTQVTVSS | high polyreactivity
10 | QVQLVESGGGVVQAGGSLRLSCAASGSIIWWYAMGWYRQAPGKERELVARMNKRSGSTYYADSVKGRFTISRDNAKNTVYLLRNSLKPEDTAVYYCAATWRSSGIAFFYWGQGTQVTLSS | high polyreactivity
11 | QVQLVESGGGLVQAGGSLRLSCAASGIIFLTHAMGWYRQAPGKERELVAAITAIGGSTYYADSVKGRFTLSRDNAMNTVYLLMISLKPEDTADYYCAADFSYVYYLYDFWGQGTKVTVSS | low polyreactivity
12 | QVQLVESGGGLVQAGGSLRLSCAASGSTFNYNAMGWYRQAPGKERELVAAITYSGSSTYYADSVKGRFTISRDNAKNTVYLQMNSLKPEDTAVYYCAKDWYYLRRNYDYWGQGTQVTVSS | high polyreactivity
13 | QVQLVESGGGLVQAGGSLRLSCAASGRIFDTNAMGWYRQAPGKERAFVAAISRSGGSTYYADSVKGRFTISRDNAKNTVYLQMNSLKPEDTAVYYCAARWYVLQPLGYDATHRKYYWGQGTQVTVSS | high polyreactivity
14 | QVQLVESGGGLVQAGGSLRISCAASGRTFYGYTMGWDRQAPGKERELVAAISRNGASTFYADSVKGRFTISRDNAKNTVYLQMNSLKPEDTAVYYCNARSWRHTDTSFEYWGQGTQVTVSS | high polyreactivity
15 | QVQLVESGGGLVQAGGSLRLSCADSGITFSRYAMGWYRQAPGKERELVAAITRRGGNTYYADSVKGRFTISRDIAKNTVYLQMNSLKPVDTAVYYCASGYTYYGGDYWGQGTQVTVSS | high polyreactivity
16 | QVQLVESVGGLVQAGGSLRLSCAASGSSIPYYAMGWYRQAPGKERELVARITWRSTSTYADSVKGRFTISRDNAKNTVYLQMNSLKPEDTAVYYCAVRLLSTYIIEYEHWGQGTQVTLSS | low polyreactivity
17 | QVQLVDSGGGLVQAGGSLRLICDASGFIFFAYAMGWYRQAPGKERELVAVITSGGGTNYADSVKGRFTFSRDNAKNTVYLQMTSLKPEDTAVYYCNADYFFASTEFYYWGQGTQVTVSS | low polyreactivity
18 | QVQLVESGGGLVQAGGSLRLSCAASGSILDPNAMGWYRQAPGKERELVAAISSSGGSTYYADSVKGRFTISRDNAKNTVYLQMNSLKPEDTAVYYCAADHFIPIYSKYDYWGQGTQVTVSS | high polyreactivity
19 | QVQLVESGGGLVQAGGSLRLSCAASGSTFARYAMGWYRQAPGKERELVAGISTSGGRTYYADSVKGRFTISRDNAKNTVYLQMTSLKPEDTAVYYCAKALSQTWYDGQYGYWGQGTQVTVSS | low polyreactivity
20 | QVQLVESGGGLVQAGGSLRLSCAPSGITFLANTMGGYRQAPGKERELVATITSSGGSTYYADSVKGRFTISRDNAKNTVYLQMNSLKPEDTAGYYCADSDLRYRGNYVYLPSEYWGQGSQVTVSS | low polyreactivity
21 | QVQLVESGGGLVQAGGSLRLSCAASGSTFQYYAMGWYRQAPGKERELVARISDSSANTYYADSVKGRFTISRDNAKNTVYLQMNSLKPEDTAVYYCAASVPYKFYSVVSVRYEYWGQGTQVTVSS | low polyreactivity
22 | QVQLVESGGGLVQAGGSLRLSCAASGFIIQYYAMGWYRQAPGKERELVAVIRSGGSTYYADSVKGRFTISRDNAKNTVFFQMNSLKPEDTAVYYCIARRTYLDRYNYWGQGTQVTVSS | high polyreactivity

Row | Sequence | polyreactivity (PSR sort gate)
23 | QVQLVESGGGLVQAGGSLRLICAASGIILAYAMGWYRQAPGKERELVAAISGRAGSTYYADSVKGRFTISRDNAKNTVYLHMNSLTPEDTAVYYCAKRISYLPVEMDYWGQGTQVTVSS | low polyreactivity
24 | QVQLLESGGGLVQAGGSLRLSCAASGRTFYGYTMGWYRQAPGKEWELVAAISTGGGSTYYADSVKGRFTISRDTAKNTVYLQMNSMKREDTAVYYCAARGGSYSFRRYNFWGQGTQVTVSS | high polyreactivity
25 | QVQLVESVGGLVQAGGSLRLSCAASGRIFWGYDMGWYRQAPGKEREFVAAISSGGGRTYYADSVKGRFTISRDNAKNTVYLQMNSLKPEDTAVYYCNADSGSYWVPRGYEYWGQGTRVTVSS | low polyreactivity
26 | QVQLVESGGGLVQAGGSLRLSCAASGRTFRNNAMGWYRQAPGKERELVAAISSRGGSTYYADSVKGRFTISRDNAKNTVYLQMNSLKPEDTAVYYCADDHSRYGDYWGQGTQVTVSS | high polyreactivity
27 | QFQLVESGGGLVQAGGSLRLSCAASGFTFVSNDMGWYRQAPGKVRELVAAISQGGGSTYYADSVKGRFTISRDNAKNTVYLQMNSLKPEDNAVYYCDAEDVYFGYDYSGQGTQVTVSS | low polyreactivity
28 | QVQLVESGGGLVQAGGSLRLSCAASGFTFGLYAMGWYRQAPGKERELVAAITWSGGSTYYADSVKGRFTISRDNAKNTVYLQMNSLKPEDTAFYYCNRLSNNREYDYWGQGTQVTLSS | high polyreactivity
29 | QVQLVESGGGLVQAGGSLRLSCAASGSILGDYAMGWYRQAPGKEREFVAAIDGSDGSTYYADSVKGRFTISRDNAKNTVYLQMNSLKPEDTAVYYCNVVRQGKREFDYWGQGTQVTVSS | low polyreactivity
30 | QVQLVESAGGLVQAGGSLPLSSAASGRIFVWYAMRWYRQAPGKDRELVAAISISGSSTYYADSVKGRFTISRDNAKNTVYLQMNSLNPEDTAVYYCAARFYSSAYWYDYWGQGTQVTVSS | high polyreactivity
31 | QVQLVESGGGLVQAGGSLRLSCAASGFTLANYAMGWYRQAPGKERELVAAISSSTGGTYYADSVKGRFTISRDNAKNTVYLQMNSLKPEDTAVYYCAAEYYFHKYVRMYYWGQGTQVTVSS | high polyreactivity
32 | QVQLQESGGGLVQAGGSLRLSCAASGPISRRSTMGWYRQAPGKERELVTAITRGTNTNYADSVKGRFTISRDNAKNTEYLQMYCLKPEDTAVYYCAAYGVLKPSRGDAVFHRYWGQGTQVTVSS | low polyreactivity
33 | QVQLVESGGGLVQAGGSLRLSCAASGSIFYGNAMGWYRQAPGKERELVAAISGSGGRTYYADSVKGRFTISRDNAKNTVYLQMISLKTEDTAVYYCAASAPGGQDDYWGQGTQVTVSS | high polyreactivity
34 | QVQLVESGGALVQAGGSLRLICAASGGTFTNYAMGWYSQAPGKERELVAAITDSGATTYYADSVKGRFTNSRDNAKNTVYLQMNSLKPEDTAVYYCNAELDLYTDFDYWGQGTQVTVSS | low polyreactivity
35 | QVQLVESGGGLVQAGGSLRLSCAASGSTYYYNAMGWYRQAPGKERELVAAIRTSGGRTYYADSVKGRFTISRDNAKNTVFLQMMSLKPEDTAVYFCADDGTDVHYTYDYWGQGTLVTVSS | low polyreactivity
36 | QVQLVESGGGLVQAGGSLRLSCAASGSTCWSYAMGWYRQAPGKERELVATITRAGTTNYADSVKGRFTISRDNAKNTVSLQRNSLNPEDTAVYYCAKRIFRWPYQGSYSFIPFGYWGQGTQVTVSS | high polyreactivity
37 | PVQLVESGGVLVQAGGILRLSCAASGFTFYLYGMGWYRRAPGKERELVAAISRSGGSTYYADSVKGRFTISRDNAKNTVYLQMNSLKPEDPAVYACAVDKQGSRRRIISDEMYYWGQGTQVTVSS | high polyreactivity
38 | QVQLVESGGGLVQAGGSLRLSCAASGSTFDFNAMGWYRQAPRKERELVASISWDTGGTYADSVKGRFTISRDNAKNSFYLQMNSLKTEDTAVYFCAARPDYFIFDYWGQGTQVTVSS | low polyreactivity
39 | QVQLVESGGALVQARGSLRLSCAASGRIFGGNAMGWYRHAPGKERDLVADISYGGGSTNYADSVKGRFTISRDNAKNTVYLQMNSLKPADTAVYYCARDAWNTDGAYIGGDYDYWGQGTKVTVSS | low polyreactivity
40 | QVQLVESGGGLVQAGGSLRLSCAASGRTFNGNAMGWYRQAPGKERELVAAISWSGGSTYYADSVKGRFTISRDNAKNTVYLQMNSLKPEDTAVYYCNADYFAWDLMYYWGQGTQVTVSS | low polyreactivity
41 | QVQLVESRGGLVQAGGSLRLSCAASGFTFSGNARGWYRQAPGKERECVAAISNRSGRTYYADSVKGRFTISRYNAKNTVYLQMNSLKPEDTAVYYCAAESIYTWGIRGDYWGHGTQVTVSS | high polyreactivity
42 | QVQIVHSGGGLVQAGGSLRLSCAASGRTIGGNAMGWYRQAPGKEWELVAAISYSDGSTYYADSVKGRFTISRDNAKNTVYLQMNSLKPEDTAVYYCAADRYAILLYAEDYWGQGTQVTVSS | low polyreactivity
43 | QVQLVESGGGLVQAGGSLRLSCAASGSTFRYYGMGWYRQAPGKERELVAAITWSSGSTFYADSVKGRFTISRDNAKNTVYLQMNSLKPEDTAVYYCAKTWWTRLKTKSLHFGYWGQGTQVTVSS | high polyreactivity
